Experiment [1] addresses T1, membrane-associated human TL1A on transfected HEK293 cells (human, UniProt O95150 1-251).
T1 construct: whole, on cells
T1 sequence (looked up): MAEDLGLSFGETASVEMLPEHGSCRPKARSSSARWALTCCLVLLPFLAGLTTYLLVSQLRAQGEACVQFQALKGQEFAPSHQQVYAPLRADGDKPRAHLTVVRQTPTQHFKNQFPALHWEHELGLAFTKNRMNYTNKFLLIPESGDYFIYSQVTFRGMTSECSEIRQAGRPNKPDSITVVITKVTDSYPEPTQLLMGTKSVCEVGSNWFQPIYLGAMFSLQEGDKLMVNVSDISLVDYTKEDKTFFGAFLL
As to the kind of experiment: flow cytometry, HEK293 cells expressing human TL1A, Fab. As for the experimental part:
All the Fab variants were tested for binding to membrane-associated human TL1A. For these studies a HEK293 cell line that had been transfected with human TL1A was used. The 293 cells expressing membrane bound human TL1A were maintained in DMEM containing L-glutamine, glucose, sodium pyruvate, and phenol red (ThermoFisher cat #11995-065) plus 10% fetal bovine serum, 1× penicillin-streptomycin (Fisher cat #15140122) and 2 μg/ml puromycin (Gibco cat #A11138-03) in a 37° C. incubator with 5% CO₂. Three days prior to the assay, a T-75 flask was seeded with 3×10⁶ cells so that the flask was 90-95% confluent on the day of the assay. The media was aspirated and the cell monolayer was gently washed with 5 ml PBS. Adherent cells were removed by repeatedly pipetting 10 ml ice cold 1% BSA/PBS against the monolayer. The cells were counted and 5×10⁵ were aliquoted for each sample to be analyzed. The cells were collected by centrifuging at 300×g at 4° C. for 5 minutes and the wash was discarded. The cells were resuspended in 100 μl Fab or IgG diluted in 1% BSA/PBS and placed on ice for 30 min. Next, the cells were washed with 1 ml 1% BSA/PBS and collected by centrifuging at 300×g at 4° C. for 5 min. The wash was discarded and 100 μl secondary goat F(ab′)2 anti-human kappa FITC (Southern Biotech cat #2062-02) or goat F(ab′)2 anti-human IgG PE (Southern Biotech cat #2043-09) conjugate, diluted 1:200 in BSA/PBS was added. Cells were placed on ice for 30 min. Finally, the cells were washed with 1 ml BSA/PBS, collected by centrifuging at 300×g at 4° C. for 5 min. The wash was removed and the cells were resuspended in 500 μl 1% BSA/PBS. One drop of Sytox AADvanced ReadyFlow Reagent (ThermoFisher cat #R37173) was added per sample and the samples were analyzed on the Attune NxT Flow Cytometer (ThermoFisher).
A general note: A flow cytometer gives signals particle by particle.

Experiment [2] addresses T1, membrane-associated human TL1A on …. As to the kind of experiment: flow cytometry, HEK293 cells expressing human TL1A, IgG.

B1: Clone 2 Fab (Fab, V domains shown)
VH: QVQLVQSGAEVKKPGASVKVSCKASGFDIQDTYMHWVRQAPGQGLEWMGRIEPASGHIKYSPKFQGRVTMTRDTSTSTVYMELSSLRSEDTAVYYCARSGGLPDWWGQGTTVTVSS
VL: EIVLTQSPGTLSLSPGERATLSCRASSSVSYMYWYQQKPGQAPRLLIYATSNLASGIPDRFSGSGSGTDFTLTISRLEPEDFAVYYCQQWEGNPRTFGGGTKLEIK
notes: Fab
With B1, in experiment [1], the binding result is on record as “binds”.

B2: Clone 52 Fab (Fab, V domains shown)
VH: QVQLVQSGAEVKKPGASVKVSCKASGFDIQDTYMHWVRQAPGQGLEWMGRIEPASGHIKYSPKFQGRVTMTRDTSTSTVYMELSSLRSEDTAVYYCARSGGLPDWWGQGTTVTVSS
VL: EIVLTQSPGTLSLSPGERATLSCGASSSVSYMYWYQQKPGQAPRLLIYATSNLASGIPDRFSGSGSGTDFTLTISRLEPEDFAVYYCQQWEGNPRTFGGGTKLEIK
notes: Fab
With B2, the binding result in experiment [1] is “binds”.

B3: Clone 47 Fab (Fab, V domains shown)
VH: QVQLVQSGAEVKKPGASVKVSCKASGFDIQDTYMHWVRQAPGQGLEWMGRIEPASGHVKYDPKFQTRVTMTRDTSTSTVYMELSSLRSEDTAVYYCARSGGLPDWWGQGTTVTVSS
VL: EIVLTQSPGTLSLSPGERATLSCRASSSVSYMYWYQQKPGQAPRLLIYATSNLASGIPDRFSGSGSGTDFTLTISRLEPEDFAVYYCQQWEGNPRTFGGGTKLEIK
notes: Fab
Consider B3, for which the binding result in experiment [1] was “binds”.

B4: Clone 17L Fab (Fab, V domains shown)
VH: QVQLVQSGAEVKKPGASVKVSCKASGFDIQDTYMHWVRQAPGQGLEWMGRIDPASGHLKYDPKFQVRVTMTRDTSTSTVYMELSSLRSEDTAVYYCARSGGLPDMWGQGTTVTVSS
VL: EIVLTQSPGTLSLSPGERATLSCRASSSVSYMYWYQQKPGQAPRLLIYATSNLASGIPDRFSGSGSGTDFTLTISRLEPEDFAVYYCQQWQGNPRTFGGGTKLEIK
notes: Fab
As to B4, the binding result in experiment [1] was “binds”.

B5: Clone 46 Fab (Fab, V domains shown)
VH: QVQLVQSGAEVKKPGASVKVSCKASGFDIQDTYMHWVRQAPGQGLEWMGRIEPASGHVKYSPKFQVRVTMTRDTSTSTVYMELSSLRSEDTAVYYCARSGGLPDWWGQGTTVTVSS
VL: EIVLTQSPGTLSLSPGERATLSCRASSSVSYMYWYQQKPGQAPRLLIYATSNLASGIPDRFSGSGSGTDFTLTISRLEPEDFAVYYCQQWEGNPRTFGGGTKLEIK
notes: Fab
Turning to B5, in experiment [1], the binding result is given as “binds”.

B6: Clone 17L IgG1 (modified) (antibody)
heavy: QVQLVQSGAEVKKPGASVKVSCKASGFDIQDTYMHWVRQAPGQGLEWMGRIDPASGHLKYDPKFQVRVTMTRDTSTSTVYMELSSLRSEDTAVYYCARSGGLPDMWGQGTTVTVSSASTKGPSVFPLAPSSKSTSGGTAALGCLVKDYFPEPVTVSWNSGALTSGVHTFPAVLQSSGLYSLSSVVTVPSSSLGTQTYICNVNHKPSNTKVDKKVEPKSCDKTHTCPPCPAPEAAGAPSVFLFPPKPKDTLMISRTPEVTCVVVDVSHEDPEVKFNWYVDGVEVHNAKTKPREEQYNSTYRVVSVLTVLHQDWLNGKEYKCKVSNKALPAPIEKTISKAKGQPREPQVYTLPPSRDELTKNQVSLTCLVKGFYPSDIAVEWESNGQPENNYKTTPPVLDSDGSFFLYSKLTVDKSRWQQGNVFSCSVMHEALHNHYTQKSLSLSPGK
light: EIVLTQSPGTLSLSPGERATLSCRASSSVSYMYWYQQKPGQAPRLLIYATSNLASGIPDRFSGSGSGTDFTLTISRLEPEDFAVYYCQQWQGNPRTFGGGTKLEIKRTVAAPSVFIFPPSDEQLKSGTASVVCLLNNFYPREAKVQWKVDNALQSGNSQESVTEQDSKDSTYSLSSTLTLSKADYEKHKVYACEVTHQGLSSPVTKSFNRGEC
notes: also called 17L G1
Regarding B6, in experiment [2], the binding result is “binds”.

B7: Clone 47 IgG2 (antibody)
heavy: QVQLVQSGAEVKKPGASVKVSCKASGFDIQDTYMHWVRQAPGQGLEWMGRIEPASGHVKYDPKFQTRVTMTRDTSTSTVYMELSSLRSEDTAVYYCARSGGLPDWWGQGTTVTVSSASTKGPSVFPLAPCSRSTSESTAALGCLVKDYFPEPVTVSWNSGALTSGVHTFPAVLQSSGLYSLSSVVTVPSSNFGTQTYTCNVDHKPSNTKVDKTVERKCCVECPPCPAPPVAGPSVFLFPPKPKDTLMISRTPEVTCVVVDVSHEDPEVQFNWYVDGVEVHNAKTKPREEQFNSTFRVVSVLTVVHQDWLNGKEYKCKVSNKGLPAPIEKTISKTKGQPREPQVYTLPPSREEMTKNQVSLTCLVKGFYPSDIAVEWESNGQPENNYKTTPPMLDSDGSFFLYSKLTVDKSRWQQGNVFSCSVMHEALHNHYTQKSLSLSPGK
light: EIVLTQSPGTLSLSPGERATLSCRASSSVSYMYWYQQKPGQAPRLLIYATSNLASGIPDRFSGSGSGTDFTLTISRLEPEDFAVYYCQQWEGNPRTFGGGTKLEIKRTVAAPSVFIFPPSDEQLKSGTASVVCLLNNFYPREAKVQWKVDNALQSGNSQESVTEQDSKDSTYSLSSTLTLSKADYEKHKVYACEVTHQGLSSPVTKSFNRGEC
notes: also called 47 G2
As for B7, the binding result in experiment [2] is given as “binds”.

B8: Clone 47 IgG1 (modified) (antibody)
heavy: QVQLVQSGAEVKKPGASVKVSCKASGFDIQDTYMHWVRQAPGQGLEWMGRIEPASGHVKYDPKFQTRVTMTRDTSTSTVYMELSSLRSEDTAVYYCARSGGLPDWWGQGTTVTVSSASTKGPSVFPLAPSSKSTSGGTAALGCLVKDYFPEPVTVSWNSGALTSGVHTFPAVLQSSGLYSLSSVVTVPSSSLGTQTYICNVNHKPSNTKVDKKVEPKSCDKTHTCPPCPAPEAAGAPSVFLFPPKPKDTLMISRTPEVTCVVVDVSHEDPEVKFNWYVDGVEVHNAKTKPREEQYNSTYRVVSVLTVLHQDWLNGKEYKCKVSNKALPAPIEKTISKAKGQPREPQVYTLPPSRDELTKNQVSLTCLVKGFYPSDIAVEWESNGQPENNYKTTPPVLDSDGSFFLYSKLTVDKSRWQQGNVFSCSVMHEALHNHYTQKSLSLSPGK
light: EIVLTQSPGTLSLSPGERATLSCRASSSVSYMYWYQQKPGQAPRLLIYATSNLASGIPDRFSGSGSGTDFTLTISRLEPEDFAVYYCQQWEGNPRTFGGGTKLEIKRTVAAPSVFIFPPSDEQLKSGTASVVCLLNNFYPREAKVQWKVDNALQSGNSQESVTEQDSKDSTYSLSSTLTLSKADYEKHKVYACEVTHQGLSSPVTKSFNRGEC
notes: also called 47 G1; variant 47
With B8, the binding result in experiment [2] is on record as “binds”.

B9: Clone 17L IgG2 (antibody)
heavy: QVQLVQSGAEVKKPGASVKVSCKASGFDIQDTYMHWVRQAPGQGLEWMGRIDPASGHLKYDPKFQVRVTMTRDTSTSTVYMELSSLRSEDTAVYYCARSGGLPDMWGQGTTVTVSSASTKGPSVFPLAPCSRSTSESTAALGCLVKDYFPEPVTVSWNSGALTSGVHTFPAVLQSSGLYSLSSVVTVPSSNFGTQTYTCNVDHKPSNTKVDKTVERKCCVECPPCPAPPVAGPSVFLFPPKPKDTLMISRTPEVTCVVVDVSHEDPEVQFNWYVDGVEVHNAKTKPREEQFNSTFRVVSVLTVVHQDWLNGKEYKCKVSNKGLPAPIEKTISKTKGQPREPQVYTLPPSREEMTKNQVSLTCLVKGFYPSDIAVEWESNGQPENNYKTTPPMLDSDGSFFLYSKLTVDKSRWQQGNVFSCSVMHEALHNHYTQKSLSLSPGK
light: EIVLTQSPGTLSLSPGERATLSCRASSSVSYMYWYQQKPGQAPRLLIYATSNLASGIPDRFSGSGSGTDFTLTISRLEPEDFAVYYCQQWQGNPRTFGGGTKLEIKRTVAAPSVFIFPPSDEQLKSGTASVVCLLNNFYPREAKVQWKVDNALQSGNSQESVTEQDSKDSTYSLSSTLTLSKADYEKHKVYACEVTHQGLSSPVTKSFNRGEC
notes: also called 17L G2
As for B9, in experiment [2], the binding result is recorded as “binds”.

The record behind these values is patent US20230192835A1 (PROMETHEUS BIOSCIENCES, published 2023).
